Experimental data published in patent US20200157236A1 (CELLDEX THERAPEUTICS, published 2020).

These binders were tested against T1, purified ALK protein (BLitz, Table 20) (Homo sapiens (Human), UniProt Q9UM73 19-1038, limits assumed) (assay: BLI (BLitz), mAb on Protein A tip, purified ALK in solution).
T1 construct: also called purified ALK proteins
How it was run: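 Humanized anti-ALK mAbs loaded at 0.5 mg/mL on Protein A tips; after stable baseline, purified ALK protein at 70 μg/mL added. Kinetic traces fit to a single binding site model to give monovalent KD.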

T1 sequence (Q9UM73 19-1038 limits assumed): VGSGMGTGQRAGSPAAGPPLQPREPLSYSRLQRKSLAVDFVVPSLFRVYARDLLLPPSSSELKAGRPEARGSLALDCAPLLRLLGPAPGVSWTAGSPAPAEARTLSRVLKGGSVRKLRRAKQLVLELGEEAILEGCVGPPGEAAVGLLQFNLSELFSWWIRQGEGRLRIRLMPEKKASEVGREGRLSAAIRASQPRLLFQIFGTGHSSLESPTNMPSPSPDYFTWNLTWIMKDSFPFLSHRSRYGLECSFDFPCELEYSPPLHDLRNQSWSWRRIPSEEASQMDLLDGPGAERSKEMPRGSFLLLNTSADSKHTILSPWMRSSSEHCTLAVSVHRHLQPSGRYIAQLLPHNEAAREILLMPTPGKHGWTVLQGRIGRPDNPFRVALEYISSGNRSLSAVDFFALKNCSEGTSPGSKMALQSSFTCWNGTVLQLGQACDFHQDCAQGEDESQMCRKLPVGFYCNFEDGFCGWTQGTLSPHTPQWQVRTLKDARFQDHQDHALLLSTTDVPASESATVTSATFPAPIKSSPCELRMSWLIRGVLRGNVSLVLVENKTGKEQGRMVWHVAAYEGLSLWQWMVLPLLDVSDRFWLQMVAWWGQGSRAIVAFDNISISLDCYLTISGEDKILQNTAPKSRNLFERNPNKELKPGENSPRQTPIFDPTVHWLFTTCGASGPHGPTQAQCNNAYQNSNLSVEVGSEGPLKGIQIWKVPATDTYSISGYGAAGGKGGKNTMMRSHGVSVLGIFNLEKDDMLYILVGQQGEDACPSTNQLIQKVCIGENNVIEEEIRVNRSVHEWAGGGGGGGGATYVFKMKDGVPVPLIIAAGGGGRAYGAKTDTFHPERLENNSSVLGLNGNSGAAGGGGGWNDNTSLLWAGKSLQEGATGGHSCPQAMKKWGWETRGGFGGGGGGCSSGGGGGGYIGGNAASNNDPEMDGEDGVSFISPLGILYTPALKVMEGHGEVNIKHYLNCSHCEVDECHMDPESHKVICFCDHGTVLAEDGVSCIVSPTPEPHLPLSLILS

Binder	Kd [nM]
Ab419 (antibody, V domains shown, humanized) VH: QVQLVQSGAEVAKPGSSVKLSCKASGYTFTSYWMHWVKQAPGQGLEWIGYIKPSSGYTKYNQKFKDKATLTADKSTSTAYMELSSLRSEDTAVYYCARDYYGSSSWFAYWGQGTLVTVSS VL: EIVMTQSQATLSTSPGERATLSCKASQNVGTNVAWYQQKPGQAPRALIYSASYRYSGVPARFSGSGSGTDFTLTISSVEPEDFAVYYCQQYNSYPYMYTFGQGTKLEIK	107
Ab421 (antibody, V domains shown, humanized) VH: EVQLVQSGAEVKKPGSSVKVSCKASGYTFSSYWMHWVRQAPGQGLEWIGYIKPSSGYTKYNQKFKDKATLTADKSTSTAYMELSSLRSEDTAVYYCARDYYGSSSWFAYWGQGTLVTVSS VL: EIVMTQSQATLSTSPGERATLSCKASQNVGTNVAWYQQKPGQAPRALIYSASYRYSGVPARFSGSGSGTDFTLTISSVEPEDFAVYYCQQYNSYPYMYTFGQGTKLEIK	280
Ab422 (antibody, V domains shown, humanized) VH: EVQLVQSGAEVKKPGSSVKLSCKASGYTFSSYWMHWVKQAPGQGLEWIGYIKPSSGYTKYAQKFQGRVTLTADKSTSTAYMELSSLRSEDTAVYYCARDYYGSSSWFAYWGQGTLVTVSS VL: EIVMTQSQATLSTSPGERATLSCKASQNVGTNVAWYQQKPGQAPRALIYSASYRYSGVPARFSGSGSGTDFTLTISSVEPEDFAVYYCQQYNSYPYMYTFGQGTKLEIK	173
Ab423 (antibody, V domains shown, humanized) VH: QVQLVQSGAEVAKPGTSVKLSCKASGYTFTSYWMHWVKQAPGQGLEWIGYIKPSSGYTKYNQKFKDKVTLTADKSTSTAYMELSSLRSEDTAVYYCARDYYGSSSWFAYWGQGTLVTVSS VL: EIVMTQSPATLSTSPGERATLSCRASQSVSSNLAWYQQKPGQAPRALIYSASYRYSGVPARFSGSGSGTDFTLTISSVEPEDFAVYYCQQYNSYPYMYTFGQGTKLEIK	266
Ab424 (antibody, V domains shown, humanized) VH: EVQLVQSGPEVKKPGTSVKLSCKASGYTFTSYWMHWVRQARGQRLEWIGYIKPSSGYTKYNQKFKDRATLTADKSTSTAYMELSSLRSEDTAVYYCARDYYGSSSWFAYWGQGTLVTVSS VL: EIVMTQSPATLSTSPGERATLSCRASQSVSSNLAWYQQKPGQAPRALIYSASYRYSGVPARFSGSGSGTDFTLTISSVEPEDFAVYYCQQYNSYPYMYTFGQGTKLEIK	247
Ab425 (antibody, V domains shown, humanized) VH: EVQLVQSGAEVKKPGTSVKLSCKASGYTFTSSAMQWVKQAPGQGLEWIGYIKPSSGYTKYNQKFKDKATLTADKSTSTAYMELSSLRSEDTAVYYCARDYYGSSSWFAYWGQGTLVTVSS VL: EIVMTQSPATLSTSPGERATLSCRASQSVSSNLAWYQQKPGQAPRALIYSASYRYSGVPARFSGSGSGTDFTLTISSVEPEDFAVYYCQQYNSYPYMYTFGQGTKLEIK	2290
Ab427 (antibody, V domains shown, humanized) VH: QVQLVQSGAEVAKPGASVKLSCKASGYTFTSYWMHWVKQAPGQGLEWIGYIKPSSGYTKYNQKFKDKATLTADKSTSTAYMELRSLRSDDTAVYYCARDYYGSSSWFAYWGQGTLVTVSS VL: EIVMTQSPATLSTSPGERATLSCRASQSVSSNLAWYQQKPGQAPRALIYSASYRYSGVPARFSGSGSGTDFTLTISSVEPEDFAVYYCQQYNSYPYMYTFGQGTKLEIK	162
Ab428 (antibody, V domains shown, humanized) VH: EVQLVQSGAEVKKPGASVKLSCKASGYTFTSYWMHWVRQAPGQGLEWIGYIKPSSGYTKYNQKFKDKATLTADKSTSTAYMELRSLRSDDTAVYYCARDYYGSSSWFAYWGQGTLVTVSS VL: EIVMTQSPATLSTSPGERATLSCRASQSVSSNLAWYQQKPGQAPRALIYSASYRYSGVPARFSGSGSGTDFTLTISSVEPEDFAVYYCQQYNSYPYMYTFGQGTKLEIK	253
Ab429 (antibody, V domains shown, humanized) VH: EVQLVQSGAEVAKPGASVKLSCKASGYTFTSYWMHWVRQAPGQGLEWIGYIKPSSGYTKYNQKFKDKATLTADKSTSTAYMELRSLRSDDTAVYYCARDYYGSSSWFAYWGQGTLVTVSS VL: EIVMTQSPATLSTSPGERATLSCRASQSVSSNLAWYQQKPGQAPRALIYSASYRYSGVPARFSGSGSGTDFTLTISSVEPEDFAVYYCQQYNSYPYMYTFGQGTKLEIK	326
Ab431 (antibody, V domains shown, humanized) VH: QVQLVQSGAEVAKPGSSVKLSCKASGYTFTSYWMHWVKQAPGQGLEWIGYIKPSSGYTKYNQKFKDKATLTADKSTSTAYMELSSLRSEDTAVYYCARDYYGSSSWFAYWGQGTLVTVSS VL: EIVMTQSPATLSTSPGERATLSCRASQSVSSNLAWYQQKPGQAPRALIYSASYRYSGVPARFSGSGSGTDFTLTISSVEPEDFAVYYCQQYNSYPYMYTFGQGTKLEIK	252
Ab432 (antibody, V domains shown, humanized) VH: EVQLVQSGAEVKKPGSSVKLSCKASGYTFTSYWMHWVRQAPGQGLEWIGYIKPSSGYTKYNQKFKDKATLTADKSTSTAYMELSSLRSEDTAVYYCARDYYGSSSWFAYWGQGTLVTVSS VL: EIVMTQSPATLSTSPGERATLSCRASQSVSSNLAWYQQKPGQAPRALIYSASYRYSGVPARFSGSGSGTDFTLTISSVEPEDFAVYYCQQYNSYPYMYTFGQGTKLEIK	337
Ab433 (antibody, V domains shown, humanized) VH: EVQLVQSGAEVKKPGSSVKVSCKASGYTFSSYWMHWVRQAPGQGLEWIGYIKPSSGYTKYNQKFKDKATLTADKSTSTAYMELSSLRSEDTAVYYCARDYYGSSSWFAYWGQGTLVTVSS VL: EIVMTQSPATLSTSPGERATLSCRASQSVSSNLAWYQQKPGQAPRALIYSASYRYSGVPARFSGSGSGTDFTLTISSVEPEDFAVYYCQQYNSYPYMYTFGQGTKLEIK	197
Ab440 (antibody, V domains shown, humanized) VH: EVQLVQSGAEVKKPGASVKLSCKASGYTFTSYWMHWVRQAPGQGLEWIGYIKPSSGYTKYNQKFKDKATLTADKSTSTAYMELRSLRSDDTAVYYCARDYYGSSSWFAYWGQGTLVTVSS VL: EIVMTQSQATMSTSVGERATLSCKASQNVGTNVAWYQQKPGQSPKALIYGASTRATGVPARFSGSGSGTDFTLTISSVEPEDFAVYYCQQYNSYPYMYTFGQGTKLEIK	138
Ab441 (antibody, V domains shown, humanized) VH: EVQLVQSGAEVAKPGASVKLSCKASGYTFTSYWMHWVRQAPGQGLEWIGYIKPSSGYTKYNQKFKDKATLTADKSTSTAYMELRSLRSDDTAVYYCARDYYGSSSWFAYWGQGTLVTVSS VL: EIVMTQSQATMSTSVGERATLSCKASQNVGTNVAWYQQKPGQSPKALIYGASTRATGVPARFSGSGSGTDFTLTISSVEPEDFAVYYCQQYNSYPYMYTFGQGTKLEIK	167
Ab443 (antibody, V domains shown, humanized) VH: QVQLVQSGAEVAKPGSSVKLSCKASGYTFTSYWMHWVKQAPGQGLEWIGYIKPSSGYTKYNQKFKDKATLTADKSTSTAYMELSSLRSEDTAVYYCARDYYGSSSWFAYWGQGTLVTVSS VL: EIVMTQSQATMSTSVGERATLSCKASQNVGTNVAWYQQKPGQSPKALIYGASTRATGVPARFSGSGSGTDFTLTISSVEPEDFAVYYCQQYNSYPYMYTFGQGTKLEIK	145
Ab444 (antibody, V domains shown, humanized) VH: EVQLVQSGAEVKKPGSSVKLSCKASGYTFTSYWMHWVRQAPGQGLEWIGYIKPSSGYTKYNQKFKDKATLTADKSTSTAYMELSSLRSEDTAVYYCARDYYGSSSWFAYWGQGTLVTVSS VL: EIVMTQSQATMSTSVGERATLSCKASQNVGTNVAWYQQKPGQSPKALIYGASTRATGVPARFSGSGSGTDFTLTISSVEPEDFAVYYCQQYNSYPYMYTFGQGTKLEIK	236
